The source of these data is PMC5909843 (Immunity, 2018).

The assay has as its target EBV gH/gL heterodimer, recombinant ectodomain (Epstein-Barr virus, UniProt P03231;P03212). The assay can be described thus: BLI.

B1: E1D1, murine anti-gH/gL monoclonal antibody (antibody, V domains shown)
VH: EVQLEQSGPELVKPGASVKMSCKASGYTFTDYVISWVKQRTGQGLEWIGEIYPESGNTYYNEKFKGEATLTADKSSNTAYMQLSRLTSEDSAVYFCAEGYAMDFWGQGTSVTVSS
VL: DIVITQTPLSLPVSLGDQASISCRSSQSLLHSNGNTYLHWYLQRPGQSPKLLIYKVSNRFSGVPDRFSGSGSGTDFTLMINRVEAEDLGVYFCSQSIHVPRTFGGGTKLEIK
Consider B1, for which the binding result is reported as “binds”.

B2: AMMO1 with the first residue of the heavy chain substituted by an asparagine (antibody, V domains shown)
VH: NVQLVQSGADVKKPGASVKVSCKASGYTFIHFGISWVRQAPGQGLEWMGWIDTNNGNTNYAQSLQGRVTMTTDTSTGTAYMELRSLSTDDTAVYFCARALEMGHRSGFPFDYWGQGVLVTVSP
VL: SYELTQPPSVSVAPGQRATITCGGHNIGAKNVHWYQQKPGQAPVLVIQYDSDRPSGIPERFSGSNSGSTATLTISRVEAGDEADYYCQVWDSGRGHPLYVFGGGTKVTVL
With B2, the binding result is given as “binds”.
